How the values were obtained:
[1] = including hypothalamic-pituitary suppression; cited from earlier work
patients [2] = assay: Clinical (antitumor) response in patients treated with MDX-010; type: in vivo, human
From the text: These adverse events, likely reflect a loss of tolerance to some self antigens, or a hyper-response to bacterial antigens present in the gut or skin, and are therefore mechanism-related and may be directly linked to the clinical antitumor activity of MDX-010.
Of note, most responses observed to date have occurred by Week 12, even in patients with initial progression. As such, all patients who receive at least one dose of MDX-010 (BMS-734016) will, whenever possible, first return for the tumor re-staging assessment at Week 12 (and not before). After patients have been treated in the Induction Phase, they will either enter the Maintenance Phase or the Follow-up Phase, depending upon whether or not they meet eligibility criteria to enter the Maintenance Phase.

patients [3] = assay: Adverse events in patients treated with MDX-010 in clinical protocols; type: in vivo
From the text: As noted above, these adverse events are an expected consequence of inhibiting CTLA-4 function. Immune-mediated events are adverse events associated with drug exposure and consistent with an immune-based mechanism of action. In terms of organ system involvement, these events have primarily involved the GI tract (diarrhea and colitis) or the skin (rash and pruritis). Diarrhea due to treatment with MDX-010 ranges from mild to very severe and may become life-threatening. Most cases of diarrhea and colitis have resolved with symptomatic treatment or corticosteroid intervention without known sequelae. Upper GI tract involvement including ileitis, duodenitis, and esophagitis has been observed.
To date, 6 patients in total have experienced gastrointestinal perforation or bleeding requiring colectomy following treatment with MDX-010. Two of these patients had melanoma (representing 0.6% of all patients with melanoma enrolled in MDX-010 related protocols), while four patients had renal cell carcinoma (representing 7% of all patients with renal cell carcinoma enrolled in MDX-010 related protocols). One of the patients with melanoma also received concomitant dacarbazine. After developing diarrhea, they initially appeared to improve on intravenous steroids, but their symptoms worsened after they were tapered off the steroids, and stool cultures were positive for Clostridium difficile, requiring aggressive medical treatment. The patient also developed laboratory evidence of disseminated intravascular coagulopathy (DIC), and required plasma and platelet transfusions. […] The patient's post-operative course was complicated by depression and malnutrition without evidence of systemic vasculitis. The patient developed pneumonia and subsequently died.
In the renal study (MDX010-011), one patient had GI bleeding, which was treated with a colectomy. The bleeding developed after a single dose of MDX-010. The other 3 events in the MDX010-011 study occurred after the patients received 4 to 6 doses of MDX-010. One patient with a bowel perforation was successfully treated with a colectomy and an ostomy. Subsequently, the bowel was re-functionalized. The patient was taken off steroids and has maintained a partial response to their malignancy. […] The diagnosis of colitis was only made on autopsy. The third patient with a bowel perforation continued to have diarrhea and was intermittently treated with steroids. Upon the diagnosis of a non-catastrophic perforation, the patient declined surgical intervention based on the overall progression of disease. The patient opted for hospice care and ultimately died. The fourth patient developed symptoms of colitis after a single dose of MDX-010, had only intermittent steroid treatment, and ultimately underwent a colectomy for uncontrolled bleeding. Of the 3 patients who received steroid therapy, the initiation of steroid therapy was delayed due to poor patient reporting of symptoms to the investigator, and the therapy was compromised by patient non-compliance with the recommended treatment.
The overall incidence of gastrointestinal perforations and/or colectomies is less than 2% of patients.
Skin toxicity in patients receiving MDX-010 has manifested as rash and pruritis, and, when biopsied, pleomorphic infiltrates have been noted in the skin. Some patients have developed vitiligo associated with MDX-010 administration. In our studies, there have been 7 cases of hypopituitarism reported to date, presumably due to immune-mediated hypophysitis. […] The effect of high-dose corticosteroid therapy on reversing pituitary abnormalities is unknown. Ocular inflammation, specifically Grade 2 or Grade 3 episcleritis or uveitis, has been reported in 6 patients; it has occurred in conjunction with GI symptoms in 4 of these patients. In addition, primary adrenal insufficiency has been noted in 3 patients. […]

Row | Compound | adverse effects versus systemically-acting corticosteroids [1] | time by which most responses observed to date have occurred (patients [2]; even in patients with initial progression) | patients developing an autoimmune-like adverse event who also experienced a clinical response (patients [2]; in one of the studies) | overall incidence of gastrointestinal perforations and/or colectomies (patients [3]; all patients) | patients in total who experienced gastrointestinal perforation or bleeding requiring colectomy (patients [3]; following treatment with MDX-010, all protocols, to date) | ocular inflammation (Grade 2 or Grade 3 episcleritis or uveitis) reported (patients [3]; human, in vivo) | primary adrenal insufficiency noted (patients [3]; human, in vivo) | ocular inflammation occurring in conjunction with GI symptoms (patients [3]; of the 6 patients with ocular inflammation) | gastrointestinal perforations or colectomies in patients with breast or prostate cancer (patients [3]; patients with breast or prostate cancer) | gastrointestinal perforation or bleeding requiring colectomy, share of all patients with melanoma enrolled (patients [3]; patients with melanoma in MDX-010 related protocols) | gastrointestinal perforation or bleeding requiring colectomy, share of all patients with renal cell carcinoma enrolled (patients [3]; patients with renal cell carcinoma in MDX-010 related protocols) | cases of hypopituitarism reported (patients [3]; presumably due to immune-mediated hypophysitis, to date)
1 | CCCC1O[C@@H]2C[C@H]3[C@@H]4CCC5=CC(=O)C=C[C@]5(C)[C@H]4[C@@H](O)C[C@]3(C)[C@]2(C(=O)CO)O1 (stereo partly drawn) [Budesonide, budesonide] | fewer adverse effects |  |  |  |  |  |  |  |  |  |  | 
2 | MDX-010: human monoclonal anti-CTLA-4 antibody (Medarex, Inc.), corresponds to monoclonal antibody 10D1; also referred to as ipilimumab |  | ≤ 12 Week | ~45% | less than 2 % of patients | 6 patients | 6 patients | 3 patients | 4 patients | no reported gastrointestinal perforations or colectomies | 0.6% | 7% | 7 cases
